Measured values as given in a protein production outcome set (Wang et al. 2014).
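Also: failed if final PepcDB status was selected cloned or expressed and not failed if soluble or beyond.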

Assay: label from the status in PepcDB records
In the case of “MDDGNENISMEVVEPEDAESDMSSDSGSDAEDDTAEPKAPKEVYLPGTKLADDEELVCDESAYVMLHQASTGAPCLSFDVIPDELGSGRQSFPMTAYIVAGTQASRAHVNNLIVMKMSNLHKTQDNDGDEDEELEDDQDDVTDREELKKPQMTCALVKHQGCVNRVRARRLGNSVYAASWSELGRVNIWDLTQPLQAVENAQLAKQYEQSEARPVFTFGGHQQEGFAIDWSPSADGVLATGDCRRDIHVWTPVEDGTWKVDQRPLAGHSQSVEDLQWSPNERSVLASCSVDKTIRIWDCRASPQKACMLTCEDAHQSDVNVISWNRNEPFIASGGDDGYLHIWDLRQFQSKKPIATFKHHTDHITTVEWSPAEATVLASGGDDDQIALWDLAVEKDIDQAVDPAQNEDVLNKLPPQLLFIHQGQKEIKELHWHPQLPGVLLSTAHSGFNIFRTISV”, the protein production is reported as “failed”.
In the case of “MDDNTKELEQYWDEFSQEYEEIQNESLVDIGQQLKEFLLAEKLLPTSQFLDLAGGTGKYIPHFSNFTDSYHLVDLSAKMLEFAKNKSADSNKITFTHQEQNKFLKNTKENTYDFVFSAMNPALESKEALVELNRIANGNVGILRLIFDEDNLFSQVEQLYLPNQEQNKEAQMLLYKVWLEELGWEFKSKKFRFFLSEKVSSQFFSDYFSDELSNAELAALTQLFFSETEIREMERLVIFELLYWEKC”, the protein production is reported as “failed”.
In the case of “MDEEIDTRKINNSFLRDHNYATEADIISTVEFNPTGELLATGDKGGRVVVFQREQESKNQPHRRGEYNVYSTLLKDWIMLIKTHRKNFRRKGKQLGFKCGSIY”, the protein production is reported as “failed”.
For “MDEISTGMLLVILAVLLFLSAYFSGSETGMMSINRYRLRHLVQNNHPGAKRVQYLLDRPDRLIGLILIGNNLVNIGASAIATILCLRWFGDAGIVIATFGLTLIILIFSEVTPKTIAALHPERISFPSSLILMPLLKVMYPIVIGMNFITNSFMRLLGVNPKQSQMADALSSDELRTVVNEAGNLIPTSHQEMLVSILDLEKVTVEDVMVPRNEIVGIDISDDWKSIVKQLSNGQHTRVLLYRNEIDDAIGFLHARDIMRLMSKNQFTADKSILVRAARDSYFIPEGTPLNVQLLKFQRRKERIGLVVDEYGDIQGLVTLEDILEEIVGDFTTSMAPAPSESVTLETDGSFLVDGSANLRELNKEMNWDFPTDGPKTLSGLIIEQFGDIPDARLSLRLGGYPVELVEIGDTMIKQIRVFPELYQKPDNQTND”, the protein production was “failed”.
For “MDEQSVESIAEVFRCFICMEKLRDARLCPHCSKLCCFSCIRRWLTEQRAQCPHCRAPLQLRELVNCRWAEEVTQQLDTLQLCSLTKHEENEKDKCENHHEKLSVFCWTCKKCICHQCALWGGMHGGHTFKPL”, the protein production was “failed”.
In the case of “MDERRFFRDVCAEWMEQYRLTVRESTLEKTQRIINIHVLPAFGDMVINNITPNVCQKVVNKWFLEAKSYKKWLNYASMIFDYALRAEYVGRNPCTLVTMPRVQEQAGEKLEHHHHHH”, the protein production is reported as “failed”.
In the case of “MDEVNVIARITGVSRVRTFERDGREGRFISLDIMDATGSTTYTLWNNDVNLVEELGLKEGDAVKILWAQPRRRDDKVTLTHTSLTRVVPGLEHHHHHH”, the protein production is reported as “failed”.
In the case of “MDFAHLDQQLRDSVLDLKLSNEERDELRQLGSELGQDQVRYMRNRAFDLVRELALADSVNVLPALKWLEQVIKTLDANSAPVRDMASAHFSPGEDCRRKIRDLCRQARISVDICVFTISDDQLSDEIRACHQRGVAVRVISDSEKQFDVGSDIAALREAGVPVRIDDTPFHMHHKFAVFDGRTLLNGSFNWTRSATTGNEENLLVIDHPQLVASYLKEFNELWSRYAPR”, the protein production is reported as “failed”.
With “MDFESNGAMMEYCKSTGRTYCAFSIQQSSKLLGTVVLELFTDIAPATCANFIKYIKDGYQGTPLHRIVPNGWVQGGDIVDGSGKGDPGFVLPDETYSVKHDAPGVLGMATGGQPHTANTQFYISLSPLPFLDGKRVAFGRVLNKQSLENLLALQTLPTFQNERPVPDVVIASCHVIYNPNS” the protein production was “failed”.
With “MDGAQPKTNFFERLIARLAREPDSAEDVLNLLRQAHEQEVFDADTLTRLEKVLDFAELEVRDAMITRSRMNVLKENDSIERITAYVIDTAHSRFPVIGEDKDEVLGILHAKDLLKYMFNPEQFHLKSVLRPAVFVPEGKSLTALLKEFREQRNHMAIVIDEYGGTSGLVTFEDIIEQIVGDIEDEFDEDESADNIHSVSAERWRIHAATEIEDINAFFGTEYGSEEADTIGGLVIQELGHLPVRGEKVLIGGLQFTVARADNRRLHTLMATRVK” the protein production was “failed”.
For “MDGASRENPGLAAAGGAVRDGNENWVGVFALNIEICSAPLAELWGLYYGLHIVWEQGITRLELEVDSKIVVGFLQTGIPDSHPLSFLLRLCYGFISRDWLVRISHVYREVNRLADGLANYAFSLPLGLYVFNSVPDSIASFVLEDARMLEEYRMKFWLLEDLGLRHCGNVKANGFHRVSAYPREKSHGRHRLYVLHY”, the protein production was “failed”.
For “MDGDGSSFEQFIMPPSALDRLASLHIEYPMLFQLSNVSVEKTSHCGVLEFTADEGLVYLPYWMMQNMSLEEGDVMQVKNISLVKGTYIKLQPHTQDFLDISNPKAILETTLRSYSCLTTGDTIMVPYNNKQYYINVVEAKPSSAVSIIETDCEVDFAPPLDYKEPEKPQKLTPSNKRPLQVKEEEEPASKVPKFTPFTGSGKRLDGKAQTQTEPEDTKQQEKPTENGKDDEKLSVTTPRQISGKLVFGSNSKSAAKETAKVDDPKNIVQESSTKSDEAKFKVFTGKKYSLNG”, the protein production was “failed”.
For “MDGRMDATTRMTLSVGALMFRMIWFPAPHWTHAARMTASTFRRYGFGLLSLVLLVLPSRLAAQDYEVPTVTDTYALQNARVVQAPGQVLESATVVVRDGVIDAVGPDAEVPYDARTIEADSLVVYAGFIDGLSHAGVEMPEGEDTDVEDPGNPPPDAAGIQPDRSVRPFLSPDESALQSLRKAGFTLGHVAPEGQMLPGASAHVFYGGETANDMVLEAGPTLFAQLQTADGYVYPATGMAVIAQMRQLYREAERRQQLEAAYERDPTGRPQPPQDPQHSALFSVLDGEQPLAFYADEALSLHRILALHQELDFPLVLAGLGESHELVDALQAVDAPLFLTLDLPEEPTRSTGQDTTTADTTSTPSRYYNPDLQVPSHETVAEEEENLELRHAMERQDYLETAATLHDAGLEFGFTTREADPGDVRGNLRTMIDQGLPEQTALAALTTRPAAQLGLDDRLGTVEAGKIANLVVTDGSYFAEDTKVTHVFVDGRLYDYSADGSDEGEVSGDVSAVLGTWSYTLDTPQGELSGEVTIEGDQSGLDGTFVGPQGDEQPLQSVSFDGTTLSFTVDSPQGGSVSVSVTVEGDTFDGSASTSGGSFPISGERTSGPNATQK”, the protein production was “failed”.
For “MDGTEIAVSPRSLHSELMCPICLDMLKNTMTTKECLHRFCSDCIVTALRSGNKECPTCRKKLVSKRSLRPDPNFDALISKIYPSREEYEAHQDRVLIRLSRLHNQQALSSSIEEGLRMQAMHRAQRVRRPIPGSDQTTTMSGGEGEPGEGEGDGEDVSSDSAPDSAPGPAPKRPRGGGAGGSSVGTGGGGTGGVGGGAGSEDSGDRGGTLGGGTLGPPSPPGAPSPPEPGGEIELVFRPHPLLVEKGEYCQTRYVKTTGNATVDHLSKYLALRIALERRQQQEAGEPGGPGGGASDTGGPDGCGGEGGGAGGGDGPEEPALPSLEGVSEKQYTIYIAPGGGAFTTLNGSLTLELVNEKFWKVSRPLELCYAPTKDPK”, the protein production was “failed”.
In the case of “MDGTVTPSPITTAMPPVSALDAGTPTLPPEAPLAMPEQNLREGSLQVRHQRTSPPGIGVRRFYLIGGTFATTAIAVWVMLSVLWPDGISVLEGCLLGLFVLLFAWIAMSFASAVAGFVTVVARAGRKLGIDPEQPLPTLRSRTALLMPTYNEDPRRLLAGLQAIYESVAETGQLEHFDFFVLSDTTREHIGRAEELVYNALCDRVGGHGRIFYRRRADNAARKAGNVADWVRRFGGSYPQMLILDADSVMTGDTIVRLVAGMENNPDVGLIQTLPAVVNGQTLFARMQQFGGRVYGPIIAFGVAWWHGAESNYWGHNAIIRTQAFADHAGLPSLRGRKPFGGHVLSHDFVEAALMRRGGWAMHMVPYLQGSYEEGPPTLTDLLIRDRRWCQGNLQHAKVVGAKGLHWISRMHMLIGIGHYFTAPMWGLLMLIGIGIPLAGGDIDLAGDLPFSPARYWHGSSQGNAIWIFVCTMFVLLAPKLLGYIALLLNPRELRACGGAFRAAVSILLETVLAALMAPVVMYLQSRGVFEVLAGKDSGWDAQVRDDGKLSWPALLRSYGGLTVFGLFMGAVAYAVSPALAAWMGPVIVGMALSIPVVALTSLRRTGMALRRAGIFCIPEELDPPKVLVRASELRRAAALEPSLI”, the protein production is reported as “failed”.
With “MDGVFRLLLGRFIQRGTIIFTTAGGTTFTCGDGTGEQVHARLTSPLAQRRLLLDPELALGEIYMDGGLVMQQGSIADLLAVAMGQPDWTPRWAKLHGLVRYWIRTLHQFNPRSRSRNNVAHHYDLDGRLYALFLDSDKQYSCAYFETPDANLDDAQLAKKRHVAAKLLTTPGQRVLDIGSGWGGLGLYLAETCGADVTGVTLSREQLQAANTRAAERGLADRARFLLQDYRDVPGPFDRIVSVGMFEHVGVDHYDTYFRRCAELLKDDGVMLLHSIGRSEGPGFTNPWIAKYIFPGGYLPALSEVLPAIERAGLLVCDIEILRLHYAETLKAWRERFLAHREEAERLYDARFVRMWEFYLAASEMSFRKQNTMVFQIQLTRRQGVVPITRDYIAAEEKRLRGMEKSRTPRLQLAGE” the protein production was “failed”.
In the case of “MDHVHKSTTTDEDERNSGRAIDRHNPIIKDGRRSFADDFIKLPTSAEDGEMSNKKLEIYKGRRSITGRRSTGGGGGGGAAALLKLITNDIGLARKSFSCVARPACDLIKTPVGSTRYLLGSDPDSITGSVDQDPAKTVEAEAPAGEDKTLTEKKTTCGDTDQVSCFVVSIMSGINVNKW”, the protein production is reported as “failed”.
In the case of “MDHYLRWRKRQKLLADFGEFALSNDNLADILTEACRLVGNALGTQRANVLEIEPSKRSLFVRAGVGLDDGIVGKLRLPMREIASERFSPDGSPLDIIHDVHTEPQYDLAAFMEVAGVVALVNVPILLPGRTLYGLLQVESSEPREFSQDDVEFLRTYSTILGPVIDRLNKVRALRDAEERFRLIVEAAR”, the protein production is reported as “not failed”.
In the case of “MDIAGYLSFFFASFTTLFIIIDPPGNLPIFIALTERFSDEYREKISKRATIIAFLILFITMVTGGKILDYFGVSISSLKIAGGILLFISSVDILLGGTRREAYKRRAEESIDVDSIAVFPLALPLYTGPGAITAGIVLYSQAGDVVMKLLVVLSAALVYSIVRLSHIYSAPIIRLLGRSGADIAARILAIFLAAIAVEFVFDGLAEKLVSMDL”, the protein production is reported as “failed”.
In the case of “MDIKRYCPVTDSELPADHVYFKFRSEIEAAEAYLGLAISEGIKVRETREILDIIDTVYNSLSDPESKLNDFQEKRLNFTEEDWYDIKEKANNGNRWSLYMFLARSAVDSAVYWSYRMKETEEFKEIVKEEMISKLLKAGYVILRESLGEVRL”, the protein production is reported as “not failed”.
For “MDIKSETEQYKRKAEIEKHTKEPNKHRDEAVLQNRAGRHRDRAVIDHKSEERERESVQNVTEMSGIERSEGEWSPPVEGITDEELPSHSPMDDLGFALFASWGRKTERQRMGSPDIRIYIFNPIKKIIIMETRIRFGLEWKPSGFGS”, the protein production was “failed”.
For “MDINIGTTHKVFHVLSKIGPAWIVMMADVDVASIITGLQSGAEFGFHMIFVMLILIPPLFIVQNAAGYLGIYSGMGVGEAIRQRYGRRLALLAAIPMASTDILSYIAEYSGIAIGLYMVGVSPYISVPVVFVIHNLIVLMRRYGRIESILMIVSVGLVLFIIVSVALMKPSWHSVILTGLNPIQPYGNHDFDIMIIANLGAIIMPFMIFYQAGASVQKSLLDQDIKISRNETAIGSIVSEVLMVMIVIAGTFIGGYATEPKMLAAALLPFGTYAYYITAAGFVTAGFLALIVISLASSWGIAEALGWKLYSGRRRGMHKAQMKGLTEERSDCDRRKFIYLYMGESIPAAAIALSFSAYLLPLVIDLMIVFVLVLAPVGVLLGLLVSDQKIMNGHRLSKRYMALFWFTLAIIEIAGLYSIITSI”, the protein production was “failed”.
